# B1: FR57 antibody (antibody, V domains shown)
# VH: EVQLVESGGGLVQPGGSRRLSCAASGFTFSSFGMHWVRQAPGKGLEWVAYISSGSSTISYADSVKGRFTISRDNSKKTLLLQMTSLRAEDTAMYYCAREAYGSSMEYWGQGTLVTVSS
# VL: EIVLTQSPATLSVTPGDRVSLSCRASQNINNNLHWYQQKPGQSPRLLIKYVSQSVSGIPDRFSGSGSGTDFTLSISSVEPEDFGMYFCQQSNSWPHYTFGQGTKLEIK
# notes: Tested as an IgG; Only the variable domains are tied to the stand-alone antibody; also called huFR57; FR1-57
# B2: FR57-G1-Mov19scFv1 (Molecule 2: FR57-IgG1-mov19scFv1) (bispecific antibody)
# heavy: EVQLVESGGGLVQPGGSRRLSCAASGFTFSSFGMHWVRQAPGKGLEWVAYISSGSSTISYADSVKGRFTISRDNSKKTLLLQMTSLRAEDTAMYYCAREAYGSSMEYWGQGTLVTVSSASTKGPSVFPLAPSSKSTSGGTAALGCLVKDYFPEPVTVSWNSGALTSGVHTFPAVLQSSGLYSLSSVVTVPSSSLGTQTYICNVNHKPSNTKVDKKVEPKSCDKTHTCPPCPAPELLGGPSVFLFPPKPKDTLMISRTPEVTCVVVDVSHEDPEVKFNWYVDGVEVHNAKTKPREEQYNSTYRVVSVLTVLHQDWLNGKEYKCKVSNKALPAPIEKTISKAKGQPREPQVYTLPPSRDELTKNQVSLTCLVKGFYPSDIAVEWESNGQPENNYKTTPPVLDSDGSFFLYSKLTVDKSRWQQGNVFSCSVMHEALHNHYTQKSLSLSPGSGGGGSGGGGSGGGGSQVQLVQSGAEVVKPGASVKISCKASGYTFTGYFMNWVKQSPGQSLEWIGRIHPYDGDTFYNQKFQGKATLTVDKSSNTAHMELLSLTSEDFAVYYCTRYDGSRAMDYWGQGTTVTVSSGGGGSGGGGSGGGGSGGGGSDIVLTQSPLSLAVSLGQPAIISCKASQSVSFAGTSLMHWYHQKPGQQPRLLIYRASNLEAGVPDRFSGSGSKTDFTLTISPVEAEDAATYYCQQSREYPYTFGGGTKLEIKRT
# light: EIVLTQSPATLSVTPGDRVSLSCRASQNINNNLHWYQQKPGQSPRLLIKYVSQSVSGIPDRFSGSGSGTDFTLSISSVEPEDFGMYFCQQSNSWPHYTFGQGTKLEIKRTVAAPSVFIFPPSDEQLKSGTASVVCLLNNFYPREAKVQWKVDNALQSGNSQESVTEQDSKDSTYSLSSTLTLSKADYEKHKVYACEVTHQGLSSPVTKSFNRGEC
# notes: Tetravalent Morrison format with the Mov19 scFv on the C-terminus of the FR57 IgG1 heavy chain; also called FR57:Mov19scFv; FR57-M9346AscFv
# B3: huMov19 (M9346A) antibody (antibody, V domains shown)
# VH: QVQLVQSGAEVVKPGASVKISCKASGYTFTGYFMNWVKQSPGQSLEWIGRIHPYDGDTFYNQKFQGKATLTVDKSSNTAHMELLSLTSEDFAVYYCTRYDGSRAMDYWGQGTTVTVSS
# VL: DIVLTQSPLSLAVSLGQPAIISCKASQSVSFAGTSLMHWYHQKPGQQPRLLIYRASNLEAGVPDRFSGSGSKTDFTLTISPVEAEDAATYYCQQSREYPYTFGGGTKLEIKR
# notes: Humanized IgG1/kappa; also called huM9346A; huM9346A-biotin
# B4: Mov19-G1-FR57scFv1 (Molecule-1: mov19-IgG1-FR57scFv1) (bispecific antibody)
# heavy: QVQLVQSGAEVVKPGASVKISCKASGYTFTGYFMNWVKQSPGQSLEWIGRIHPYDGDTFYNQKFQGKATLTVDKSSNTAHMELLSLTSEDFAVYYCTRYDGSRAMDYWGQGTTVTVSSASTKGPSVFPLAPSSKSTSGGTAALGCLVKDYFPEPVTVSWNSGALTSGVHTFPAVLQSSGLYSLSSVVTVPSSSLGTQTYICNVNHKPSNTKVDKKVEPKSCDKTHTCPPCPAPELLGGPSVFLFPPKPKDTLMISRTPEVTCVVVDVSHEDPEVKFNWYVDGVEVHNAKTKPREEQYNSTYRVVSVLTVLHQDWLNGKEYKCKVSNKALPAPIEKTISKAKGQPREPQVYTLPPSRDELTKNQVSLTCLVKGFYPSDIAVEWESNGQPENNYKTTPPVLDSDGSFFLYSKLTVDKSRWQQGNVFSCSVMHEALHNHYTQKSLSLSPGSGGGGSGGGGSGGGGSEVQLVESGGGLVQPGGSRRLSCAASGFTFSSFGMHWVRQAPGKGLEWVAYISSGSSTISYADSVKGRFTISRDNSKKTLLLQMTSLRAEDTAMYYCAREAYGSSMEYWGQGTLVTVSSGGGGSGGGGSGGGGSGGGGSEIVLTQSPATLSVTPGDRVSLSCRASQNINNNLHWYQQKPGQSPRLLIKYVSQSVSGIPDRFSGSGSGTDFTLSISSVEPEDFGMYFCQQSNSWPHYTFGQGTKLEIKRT
# light: DIVLTQSPLSLAVSLGQPAIISCKASQSVSFAGTSLMHWYHQKPGQQPRLLIYRASNLEAGVPDRFSGSGSKTDFTLTISPVEAEDAATYYCQQSREYPYTFGGGTKLEIKRTVAAPSVFIFPPSDEQLKSGTASVVCLLNNFYPREAKVQWKVDNALQSGNSQESVTEQDSKDSTYSLSSTLTLSKADYEKHKVYACEVTHQGLSSPVTKSFNRGEC
# notes: Tetravalent Morrison format with the FR57 scFv on the C-terminus of the Mov19 IgG1 heavy chain; also called Mov19:FR57scFv; M9346A-FR57scFv
# Columns and labels:
# [1] = molecular target: recombinant FRα antigen (human, UniProt P15328 25-234); assay: BLI (Octet96), IgG on anti-human- or anti-murine-Fc sensors, recombinant FRα in solution, 1:1 fit
# Chain of recombinant FRα antigen (P15328 25-234 limits assumed): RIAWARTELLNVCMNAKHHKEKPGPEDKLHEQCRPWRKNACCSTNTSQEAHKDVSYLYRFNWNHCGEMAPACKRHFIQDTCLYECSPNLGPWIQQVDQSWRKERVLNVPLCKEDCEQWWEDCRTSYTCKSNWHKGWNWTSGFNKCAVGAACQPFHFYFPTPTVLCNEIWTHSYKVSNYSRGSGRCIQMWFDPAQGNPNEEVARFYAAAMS
# Description: Table 10 summarizes the kinetic parameters of binding of Bin1 and Bin 2 antibodies with recombinant FRα antigen. KD values were obtained via biolayer interferometry performed on Octet96 system (Fortebio) essentially according to manufacturer's recommended procedure. Briefly, anti-human- or anti-murine −Fc sensors were presoaked in 1× Kinetic Buffer (Fortebio) for 10 min and incubated with 5 μg/mL of either Bin 1 or Bin 2 IgG for 5 min. The sensors were then sequentially moved to 1× Kinetic Buffer for 5 min to determine baseline, serial dilutions of antigen for association (10 min), and 1× Kinetic Buffer for dissociation (10 min). The raw data was collected, processed and fitted to a simple 1:1 binding model using Fortebio analysis software to determine the kinetic parameters Kon and Koff.
# [2] = molecular target: T1, human folate receptor alpha (FRα) on FRα-positive cells (KB, T47D, JHOS-4) (human, UniProt P15328 25-234); assay: competition FACS on FRα-positive T47D cells; Morrison antibody fixed at 0.8 nM, detected with anti-human FITC secondary; murine parental antibodies titrated (log axis -11 to -7, unit not given; text: 0.2 to 50 nM)
# T1 construct: Endogenous FRα on human tumour cell lines; also called FOLR1; folate receptor 1
# T1 sequence (P15328 25-234 limits assumed, stated change not applied): as the sequence (P15328 25-234 limits assumed) above
# Description: These eight constructs were further polished using ceramic hydroxyapatite chromatography to greater than 95% purity and subjected to further characterization. To account for the effects of overall molecule conformation or potential structural changes of the scFv arms on the binding of the biparatopic arms, the binding efficiency of each arm of the eight Morrison's constructs was assayed by a competition FACS assay. Briefly, FRα-positive T47D cells were incubated with 0.8 nM of a Morrison's antibody mixed with a corresponding murine parental antibody at a range of concentrations, generally from 50 nM to 0.2 nM. After incubation on ice for 2 hours, cells were washed from unbound antibodies, and bound Morrison's antibody was detected with secondary anti-human FITC-labeled antibody. Reduced binding of the Morrison's antibody in the presence of increasing concentration of the parental antibody indicated an effect on binding of the second set of arms.
Binder,Kd [1] [nM],koff [1] [s⁻¹],kon [1] [M⁻¹ s⁻¹],binding result [2]
B1,1,0.0004,300000,
B2,,,,binds
B3,0.6,0.0003,500000,
B4,,,,binds

# — patent US20200362029A1 (IMMUNOGEN, published 2020)
